T1: Mcm4 (Saccharomyces cerevisiae, UniProt P30665 1-933)
T1 construct: Mcm4, Saccharomyces cerevisiae, full length; Subunit of m2, written alone for the contacts seen in the cryo-EM structures
T1 sequence (looked up): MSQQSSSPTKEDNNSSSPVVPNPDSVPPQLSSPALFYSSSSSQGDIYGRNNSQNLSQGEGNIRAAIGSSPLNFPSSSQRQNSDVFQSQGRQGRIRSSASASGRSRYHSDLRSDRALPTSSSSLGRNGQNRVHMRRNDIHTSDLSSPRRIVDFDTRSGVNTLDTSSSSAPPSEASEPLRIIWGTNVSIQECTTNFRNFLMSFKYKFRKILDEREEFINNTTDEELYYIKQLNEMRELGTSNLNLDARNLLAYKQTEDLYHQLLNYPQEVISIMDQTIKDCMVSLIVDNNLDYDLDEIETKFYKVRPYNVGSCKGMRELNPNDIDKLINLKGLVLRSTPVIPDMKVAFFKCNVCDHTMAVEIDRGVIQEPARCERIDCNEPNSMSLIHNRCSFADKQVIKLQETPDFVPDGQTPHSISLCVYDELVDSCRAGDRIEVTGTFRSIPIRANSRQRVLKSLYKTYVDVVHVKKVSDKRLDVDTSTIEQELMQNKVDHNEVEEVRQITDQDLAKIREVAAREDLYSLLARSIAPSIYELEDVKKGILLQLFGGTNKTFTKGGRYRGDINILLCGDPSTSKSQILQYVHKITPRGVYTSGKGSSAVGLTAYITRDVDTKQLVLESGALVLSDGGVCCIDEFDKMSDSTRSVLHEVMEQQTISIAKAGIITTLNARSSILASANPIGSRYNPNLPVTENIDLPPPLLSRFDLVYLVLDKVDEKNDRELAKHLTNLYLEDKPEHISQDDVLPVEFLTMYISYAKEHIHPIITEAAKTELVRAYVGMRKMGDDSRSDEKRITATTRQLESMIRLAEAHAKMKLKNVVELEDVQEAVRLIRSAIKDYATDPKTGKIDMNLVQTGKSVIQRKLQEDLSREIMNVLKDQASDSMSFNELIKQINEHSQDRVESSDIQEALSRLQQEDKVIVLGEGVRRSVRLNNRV

T2: Mcm7 (Saccharomyces cerevisiae, UniProt P38132 1-845)
T2 construct: Mcm7, Saccharomyces cerevisiae, full length; Subunit of m2, written alone for the contacts seen in the cryo-EM structures
T2 sequence (looked up): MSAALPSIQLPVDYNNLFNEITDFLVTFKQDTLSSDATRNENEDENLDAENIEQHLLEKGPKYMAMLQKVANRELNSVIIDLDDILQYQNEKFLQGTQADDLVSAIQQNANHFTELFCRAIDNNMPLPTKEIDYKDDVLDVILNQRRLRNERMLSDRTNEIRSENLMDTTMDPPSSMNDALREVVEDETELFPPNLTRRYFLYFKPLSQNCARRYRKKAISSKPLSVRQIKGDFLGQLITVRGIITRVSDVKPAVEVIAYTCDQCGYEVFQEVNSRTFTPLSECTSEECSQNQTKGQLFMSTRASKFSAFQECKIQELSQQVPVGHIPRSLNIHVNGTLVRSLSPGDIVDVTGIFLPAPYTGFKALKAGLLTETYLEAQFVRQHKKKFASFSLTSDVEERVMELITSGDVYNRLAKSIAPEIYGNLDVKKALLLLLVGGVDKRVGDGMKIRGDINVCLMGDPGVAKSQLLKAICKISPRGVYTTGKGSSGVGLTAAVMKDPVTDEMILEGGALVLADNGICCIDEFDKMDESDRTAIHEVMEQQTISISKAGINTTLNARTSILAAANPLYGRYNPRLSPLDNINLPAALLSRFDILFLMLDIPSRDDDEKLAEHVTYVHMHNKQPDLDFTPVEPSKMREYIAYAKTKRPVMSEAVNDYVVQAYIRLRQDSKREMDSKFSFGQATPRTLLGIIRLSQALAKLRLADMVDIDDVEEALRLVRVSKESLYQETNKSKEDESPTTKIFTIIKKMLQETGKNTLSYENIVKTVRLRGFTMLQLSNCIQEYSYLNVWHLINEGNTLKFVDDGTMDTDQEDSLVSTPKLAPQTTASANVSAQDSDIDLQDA

T3: Mcm2 (Saccharomyces cerevisiae, UniProt P29469 1-868)
T3 construct: Mcm2, Saccharomyces cerevisiae, full length; Subunit of m2, written alone for the contacts seen in the cryo-EM structures
T3 sequence (looked up): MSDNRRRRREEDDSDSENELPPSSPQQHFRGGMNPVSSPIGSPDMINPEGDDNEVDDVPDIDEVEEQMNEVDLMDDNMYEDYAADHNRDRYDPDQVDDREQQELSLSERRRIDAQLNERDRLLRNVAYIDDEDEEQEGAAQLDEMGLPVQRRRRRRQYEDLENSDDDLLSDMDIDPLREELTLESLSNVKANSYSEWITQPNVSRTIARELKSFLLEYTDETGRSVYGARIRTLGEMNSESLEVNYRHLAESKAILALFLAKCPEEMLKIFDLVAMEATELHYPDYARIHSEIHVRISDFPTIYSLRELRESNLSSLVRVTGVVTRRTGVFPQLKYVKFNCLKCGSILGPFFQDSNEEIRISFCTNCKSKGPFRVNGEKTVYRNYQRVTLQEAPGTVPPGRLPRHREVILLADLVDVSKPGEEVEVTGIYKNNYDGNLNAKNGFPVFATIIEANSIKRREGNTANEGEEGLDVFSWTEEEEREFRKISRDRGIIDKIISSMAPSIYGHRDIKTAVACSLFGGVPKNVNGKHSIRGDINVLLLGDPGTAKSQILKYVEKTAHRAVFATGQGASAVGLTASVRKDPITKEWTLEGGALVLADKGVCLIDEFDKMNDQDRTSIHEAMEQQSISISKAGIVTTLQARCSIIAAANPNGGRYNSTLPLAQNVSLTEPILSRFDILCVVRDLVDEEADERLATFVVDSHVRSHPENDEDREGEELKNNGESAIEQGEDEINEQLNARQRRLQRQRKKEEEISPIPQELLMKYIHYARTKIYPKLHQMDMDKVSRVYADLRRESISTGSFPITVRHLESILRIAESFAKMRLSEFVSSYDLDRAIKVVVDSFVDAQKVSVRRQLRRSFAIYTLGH

B1: Dbf4 (natural protein, Saccharomyces cerevisiae, UniProt P32325 1-704, looked up)
chain: MVSPTKMIIRSPLKETDTNLKHNNGIAASTTAAGHLNVFSNDNNCNNNNTTESFPKKRSLERLELQQQQHLHEKKRARIERARSIEGAVQVSKGTGLKNVEPRVTPKELLEWQTNWKKIMKRDSRIYFDITDDVEMNTYNKSKMDKRRDLLKRGFLTLGAQITQFFDTTVTIVITRRSVENIYLLKDTDILSRAKKNYMKVWSYEKAARFLKNLDVDLDHLSKTKSASLAAPTLSNLLHNEKLYGPTDRDPRTKRDDIHYFKYPHVYLYDLWQTWAPIITLEWKPQELTNLDELPYPILKIGSFGRCPFIGDRNYDESSYKRVVKRYSRDKANKKYALQLRALFQYHADTLLNTSSVNDQTKNLIFIPHTCNDSTKSFKKWMQEKAKNFEKTELKKTDDSAVQDVRNEHADQTDEKNSILLNETETKEPPLKEEKENKQSIAEESNKYPQRKELAATPKLNHPVLATFARQETEEVPDDLCTLKTKSRQAFEIKASGAHQSNDVATSFGNGLGPTRASVMSKNMKSLSRLMVDRKLGVKQTNGNNKNYTATIATTAETSKENRHRLDFNALKKDEAPSKETGKDSAVHLETNRKPQNFPKVATKSVSADSKVHNDIKITTTESPTASKKSTSTNVTLHFNAQTAQTAQPVKKETVKNSGYCENCRVKYESLEQHIVSEKHLSFAENDLNFEAIDSLIENLRFQI
notes: Dbf4, Saccharomyces cerevisiae, full length (41% resolved in the map); Subunit of m1, written alone for the contacts seen in the cryo-EM structures; also called dumbbell former 4; source: budding yeast cells, purified as subunit of DDK

Legend:
Assay in all cases: cryo-EM structure; MD-(ATPγS): 250 nM DH released from beads by AluI + 750 nM DDK, 10 min 24 °C, buffer C with 3 mM ATPγS; GraFix glycerol gradient with glutaraldehyde; states I-III
Conditions in all cases: both partners purified
[1] = target: T1, Mcm4
[2] = target: T4, Mcm6 (Saccharomyces cerevisiae, UniProt P53091 1-1017)
T4 construct: Mcm6, Saccharomyces cerevisiae, full length; Subunit of m2, written alone for the contacts seen in the cryo-EM structures
T4 sequence (P53091 whole entry): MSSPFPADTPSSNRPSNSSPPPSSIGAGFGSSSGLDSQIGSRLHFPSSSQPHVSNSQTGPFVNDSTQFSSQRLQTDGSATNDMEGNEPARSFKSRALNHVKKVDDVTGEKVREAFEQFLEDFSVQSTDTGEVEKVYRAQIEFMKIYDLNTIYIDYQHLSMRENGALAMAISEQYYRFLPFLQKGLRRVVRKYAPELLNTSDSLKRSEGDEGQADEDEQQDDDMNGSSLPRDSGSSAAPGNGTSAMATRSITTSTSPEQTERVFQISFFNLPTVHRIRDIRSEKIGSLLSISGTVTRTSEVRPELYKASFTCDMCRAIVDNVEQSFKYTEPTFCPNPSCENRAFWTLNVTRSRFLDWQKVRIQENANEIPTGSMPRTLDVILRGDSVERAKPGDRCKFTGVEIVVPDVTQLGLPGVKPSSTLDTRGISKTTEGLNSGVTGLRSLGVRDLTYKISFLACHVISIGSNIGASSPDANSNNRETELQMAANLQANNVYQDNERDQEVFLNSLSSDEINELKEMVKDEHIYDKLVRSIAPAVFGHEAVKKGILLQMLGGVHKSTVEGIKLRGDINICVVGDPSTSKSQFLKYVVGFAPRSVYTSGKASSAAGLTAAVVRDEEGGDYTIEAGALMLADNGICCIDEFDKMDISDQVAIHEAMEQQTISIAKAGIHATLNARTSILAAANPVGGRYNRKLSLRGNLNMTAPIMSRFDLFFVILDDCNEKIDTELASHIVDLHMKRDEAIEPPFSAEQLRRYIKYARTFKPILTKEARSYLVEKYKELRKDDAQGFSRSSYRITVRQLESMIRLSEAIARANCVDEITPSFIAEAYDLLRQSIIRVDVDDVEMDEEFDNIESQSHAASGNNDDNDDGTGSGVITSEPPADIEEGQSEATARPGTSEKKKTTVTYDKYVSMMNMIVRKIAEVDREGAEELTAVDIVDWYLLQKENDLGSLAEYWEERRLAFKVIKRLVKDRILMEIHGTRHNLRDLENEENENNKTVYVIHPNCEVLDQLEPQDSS

[3] = target: T2, Mcm7
[4] = target: T3, Mcm2
[5] = target: B1

Row | binding result [1] | binding result [2] | binding result [3] | binding result [4] | binding result [5] | Binder
1 | binds | binds | binds | binds | – | B1
2 | binds | – | – | – | binds | Cdc7 (enzyme, Saccharomyces cerevisiae, UniProt P06243 1-507, looked up, Cdc7 serine/threonine kinase, Saccharomyces cerevisiae, full length (87% resolved in the map); Subunit of m1, written alone for the contacts seen in the cryo-EM structures; also called Cdc7 kinase; Cdc7 serine/threonine kinase; source: budding yeast cells, purified as subunit of DDK) MTSKTKNIDDIPPEIKEEMIQLYHDLPGIENEYKLIDKIGEGTFSSVYKAKDITGKITKKFASHFWNYGSNYVALKKIYVTSSPQRIYNELNLLYIMTGSSRVAPLCDAKRVRDQVIAVLPYYPHEEFRTFYRDLPIKGIKKYIWELLRALKFVHSKGIIHRDIKPTNFLFNLELGRGVLVDFGLAEAQMDYKSMISSQNDYDNYANTNHDGGYSMRNHEQFCPCIMRNQYSPNSHNQTPPMVTIQNGKVVHLNNVNGVDLTKGYPKNETRRIKRANRAGTRGFRAPEVLMKCGAQSTKIDIWSVGVILLSLLGRRFPMFQSLDDADSLLELCTIFGWKELRKCAALHGLGFEASGLIWDKPNGYSNGLKEFVYDLLNKECTIGTFPEYSVAFETFGFLQQELHDRMSIEPQLPDPKTNMDAVDAYELKKYQEEIWSDHYWCFQVLEQCFEMDPQKRSSAEDLLKTPFFNELNENTYLLDGESTDEDDVVSSSEADLLDKDVLLISE
